For one substance, Ka (binding affinity, printed in nM) results are on record in patent US5981262.

The assay concerns the target phosphopeptide of SEQ ID NO: 32, containing the PI3K ligand pY.V.P.M.L. (SEQ ID NO: 31). As to the kind of experiment: SPR (BIAcore); phosphopeptide immobilized via its C-terminal lysine, SH2 peptide injected at 0.5, 0.67, 1.0, 2.0 and 4.0 uM. For orientation: SPR reads the build-up and loss of mass on a sensor chip optically.

As to N-terminal SH2 peptide of the PI3K p85, the Ka (binding affinity, printed in nM) was determined as 160 nM.
